Results: paper PMC6307784

Biological target: T1, NhaR-His6 (Escherichia coli) (UniProt P0A9G2)
T1 sequence: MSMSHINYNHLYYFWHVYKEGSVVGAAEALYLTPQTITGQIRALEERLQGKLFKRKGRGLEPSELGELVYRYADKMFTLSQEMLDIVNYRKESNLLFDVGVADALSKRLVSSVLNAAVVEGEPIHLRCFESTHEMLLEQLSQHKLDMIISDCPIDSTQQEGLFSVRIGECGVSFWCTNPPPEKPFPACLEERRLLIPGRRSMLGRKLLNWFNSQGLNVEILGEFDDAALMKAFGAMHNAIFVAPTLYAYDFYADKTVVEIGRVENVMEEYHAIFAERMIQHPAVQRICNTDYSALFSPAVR
Experiment: EMSA
Conditions: LightShift Chemiluminescent EMSA Kit (Pierce) as per manufacturer, DNA 1 fM as printed, 5% PAGE; buffer, salt, pH and temperature not stated

TCGACGAAGATAGAATCGTCTTTTTCGCGAAGTCTTACAAGGCGCTTACAGACAATGCCTTAAGGAAAATTTCATATGAAAGTTAAGAATTAACAATCAACATTTTGATTTTAAATGAAAATAACGATTCTTATCTTTTTAAGTATTCGCTTATTTCCTGGCGATCTCCTACAGAGTCTGTAAGAGATCTCTCACAACCAGATGGGGTATTTGGATTA (double strand) [csrB promoter 220 bp]
binding: no binding
